The record followed here is patent publication US20240352128A1 (published 2024).

Substitutions are numbered along the chain they refer to. Where two headings read alike, the source gives them in different places.

Experiment [1] addresses recombinant human CD16a-His protein (Acro Biosystems; catalog #: CDA-H52S1) (human, UniProt P08637 17-208). Nature of the experiment: ELISA (OD450; legend says FACS). For orientation: ELISA stands for enzyme-linked immunosorbent assay.
Experiment [2] concerns the target T1, human CD16b as FACS target of FIGS. 6B-10B (human, UniProt O75015 17-200).
T1 chain: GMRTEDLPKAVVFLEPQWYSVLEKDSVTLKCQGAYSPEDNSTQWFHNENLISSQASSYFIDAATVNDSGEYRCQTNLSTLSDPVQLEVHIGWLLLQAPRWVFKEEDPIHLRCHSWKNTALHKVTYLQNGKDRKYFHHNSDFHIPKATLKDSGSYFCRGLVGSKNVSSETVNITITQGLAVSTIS
Nature of the experiment: FACS.

The target in experiment [3] is T2, human CD16a on HEK293 cells expressing human CD16a (constructed by Genscript) (human, UniProt P08637 17-254). Nature of the experiment: FACS. A general note: In flow cytometry, cells or beads pass a laser one at a time.
T2 sequence (P08637 17-254): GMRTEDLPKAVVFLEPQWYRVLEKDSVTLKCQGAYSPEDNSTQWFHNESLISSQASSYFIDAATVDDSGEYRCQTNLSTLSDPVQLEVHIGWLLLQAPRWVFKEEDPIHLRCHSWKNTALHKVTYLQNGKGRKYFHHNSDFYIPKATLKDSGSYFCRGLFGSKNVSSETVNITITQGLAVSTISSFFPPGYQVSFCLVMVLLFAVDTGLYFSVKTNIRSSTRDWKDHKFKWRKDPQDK
In experiment [4] the target is T3, cynomolgus monkey CD16a on HEK293 cells expressing cyno monkey CD16a (constructed by Genscript) (cynomolgus monkey, UniProt Q8SPW2 17-254).
T3 chain: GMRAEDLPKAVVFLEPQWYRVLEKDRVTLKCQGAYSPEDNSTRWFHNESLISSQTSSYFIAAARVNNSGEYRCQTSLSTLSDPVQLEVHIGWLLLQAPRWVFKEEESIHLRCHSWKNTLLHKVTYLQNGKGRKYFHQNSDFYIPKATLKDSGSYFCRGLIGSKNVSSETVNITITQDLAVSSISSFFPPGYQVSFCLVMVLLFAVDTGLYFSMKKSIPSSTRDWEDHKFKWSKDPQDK
Nature of the experiment: FACS.

In experiment [5] the target is T1, human CD16b as FACS target of FIGS. …. Nature of the experiment: FACS.
For experiment [6], the target named is T2, human CD16a on HEK293 cells expressing …. Nature of the experiment: FACS. This is another data set of the same source.

recombinant human CD16a-His protein (Acro Biosystems; catalog #: CDA-H52S1), sequence (P08637 17-208): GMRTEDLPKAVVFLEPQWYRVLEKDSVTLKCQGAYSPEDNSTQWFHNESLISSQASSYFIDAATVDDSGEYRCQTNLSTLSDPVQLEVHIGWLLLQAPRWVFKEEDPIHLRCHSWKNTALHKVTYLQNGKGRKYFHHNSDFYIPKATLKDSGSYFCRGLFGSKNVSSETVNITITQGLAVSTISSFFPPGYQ

B1: AR8875 sdAb fusion protein with mIgG1 Fc (Fc fusion)
chain: QVQLVESGGGLVQPGGSLRLSCAASGFTFSNYAMTWVRQAPGKGLEWVSSIDRGGSITSYADSVKGRFAISRDNAKNTMYLQMNNLRPEDTARYVCARGDSTYSRLTAAYRGQGTQVTVSSVPRDCGCKPCICTVPEVSSVFIFPPKPKDVLTITLTPKVTCVVVDISKDDPEVQFSWFVDDVEVHTAQTQPREEQFNSTFRSVSELPIMHQDWLNGKEFKCRVNSAAFPAPIEKTISKTKGRPKAPQVYTIPPPKEQMAKDKVSLTCMITDFFPEDITVEWQWNGQPAENYKNTQPIMDTDGSYFVYSKLNVQKSNWEAGNTFTCSVLHEGLHNHHTEKSLSHSPGK
What is called EC50 is the midpoint of the concentration-response curve. B1: the EC50 in experiment [1] came out at 0.018 µg/mL.

B2: AR8776 sdAb fusion protein with mIgG1 Fc (Fc fusion)
chain: B1 chain with Q1A, T35S, D52N, S59N, M79I, R93Q, V95S, T107S
Turning to B2, in experiment [1], the 50% effective concentration (EC50) was 0.0155 µg/mL.

B3: pTT5-AR8820-2.3mIgG1Fc (Fc fusion)
VHH-Fc: EVQLVESGGGLIQPGGSLRLSCAASGSSISRYAMAWYRQAPGKGRELVSVVRITGSPIYADFVGGRFTISRDNSKNTLYLQMNSLRAEDTAVYYCNRGNFNTYTRRYSPSETWGQGTTVTVSSVPRDCGCKPCICTVPEVSSVFIFPPKPKDVLTITLTPKVTCVVVDISKDDPEVQFSWFVDDVEVHTAQTQPREEQFNSTFRSVSELPIMHQDWLNGKEFKCRVNSAAFPAPIEKTISKTKGRPKAPQVYTIPPPKEQMAKDKVSLTCMITDFFPEDITVEWQWNGQPAENYKNTQPIMDTDGSYFVYSKLNVQKSNWEAGNTFTCSVLHEGLHNHHTEKSLSHSPGK
Regarding B3, the EC50 in experiment [2] is about 167 µM; in experiment [3], 0.000332 µM; in experiment [4], 0.000745 µM.

B4: pTT5-AR8820-3.3 mIgG1Fc (Fc fusion)
VHH-Fc: B3 VHH-Fc with I12V, S49A, S74A, T77S, R97T, T118L
B4: the EC50 came out at 0.000751 µM in experiment [4], 0.0618 µM in experiment [5] and 0.000452 µM in experiment [6].

B5: pTT5-AR8820-1.2mIgG1Fc (Fc fusion)
heavy: B3 VHH-Fc with E1Q, L11V, I12V, L47W, S49A, N96A, R97T, Q115K
B5: the half-maximal effective concentration (EC50) in experiment [2] is about 0.497 µM; in experiment [3], 0.00047 µM; in experiment [4] it was 0.000914 µM.

B6: pTT5-AR8820-1.1mIgG1Fc (Fc fusion)
heavy: B3 VHH-Fc with E1Q, L11V, I12V, S49A, N96A, R97T, Q115K
B6: the EC50 in experiment [2] is about 65.6 µM; in experiment [3], 0.00038 µM; in experiment [4], 0.00092 µM.

B7: pTT5-AR8820-1.3mIgG1Fc (Fc fusion)
heavy: B3 VHH-Fc with E1Q, L11V, I12V, S49A, R97T, Q115K
As for B7, the EC50 in experiment [3] came out at 0.000384 µM; in experiment [4], 0.000772 µM.

B8: pTT5-AR8804-3.3mIgG1Fc (Fc fusion)
heavy: B3 VHH-Fc with E1Q, L11V, I12V, I29V, S49A, S56I, G64K, R97T, Q115K
For the molecule B8, the EC50 in experiment [3] stood at 0.000412 µM; in experiment [4], 0.000838 µM.

B9: pTT5-AR8820-3.1 mIgG1Fc (Fc fusion)
heavy: B3 VHH-Fc with I12V, S49A, S74A, T77S, N96A, R97T, T118L
Turning to B9, the results for the EC50 in experiment [4], in experiment [5] and in experiment [6] were 0.000738 µM, 0.0623 µM and 0.000419 µM, respectively.

B10: pTT5-AR8820-2.1mIgG1Fc (Fc fusion)
VHH-Fc: B3 VHH-Fc with N96A, R97T
In the case of B10, the EC50 in experiment [2] was about 7840 µM; in experiment [3] it was 0.000494 µM; in experiment [4], 0.000787 µM.

B11: AR8866 sdAb fusion protein with mIgG1 Fc (Fc fusion)
chain: QVKLEESGGGLVQPGGSLRLSCVASGFTFSVWTMSWVRQAPGKGLEWVSDISHSGIYTTYADSVKGRFTISRDNAKNTLWLQLNALKPEDTAVYYCAQGNRRNSMLSGTLRGQGTQVTVSSVPRDCGCKPCICTVPEVSSVFIFPPKPKDVLTITLTPKVTCVVVDISKDDPEVQFSWFVDDVEVHTAQTQPREEQFNSTFRSVSELPIMHQDWLNGKEFKCRVNSAAFPAPIEKTISKTKGRPKAPQVYTIPPPKEQMAKDKVSLTCMITDFFPEDITVEWQWNGQPAENYKNTQPIMDTDGSYFVYSKLNVQKSNWEAGNTFTCSVLHEGLHNHHTEKSLSHSPGK
Regarding B11, in experiment [1], the EC50 came out at 0.0174 µg/mL.

B12: AR8861 sdAb fusion protein with mIgG1 Fc (Fc fusion)
chain: B11 chain with Q1A, K3Q, E5V, E6D, V31I, I56L, N103T
As for B12, the EC50 in experiment [1] was 0.0227 µg/mL.

B13: pTT5-AR8804-3.2 mIgG1Fc (Fc fusion)
heavy: QVQLVESGGGVVQPGGSLRLSCAASGSSVSRYAMAWYRQAPGKGREWVAVVRITGIPIYADFVKGRFTISRDNSKNTLYLQMNSLRAEDTAVYYCATGNFNTYTRRYSPSETWGKGTTVTVSSVPRDCGCKPCICTVPEVSSVFIFPPKPKDVLTITLTPKVTCVVVDISKDDPEVQFSWFVDDVEVHTAQTQPREEQFNSTFRSVSELPIMHQDWLNGKEFKCRVNSAAFPAPIEKTISKTKGRPKAPQVYTIPPPKEQMAKDKVSLTCMITDFFPEDITVEWQWNGQPAENYKNTQPIMDTDGSYFVYSKLNVQKSNWEAGNTFTCSVLHEGLHNHHTEKSLSHSPGK
Turning to B13, the EC50 is about 195 µM in experiment [2], 0.000444 µM in experiment [3] and 0.000928 µM in experiment [4].

B14: AR8887 sdAb fusion protein with mIgG1 Fc (Fc fusion)
chain: QVQLVESGGGLVQAGGSLRLSCAVSGFLYYSIGWFRQAPGKEREWVSCISRSGAGTSYANSVKGRSTISRDNDKNTVYLQMNSLKSEDTAVYYCARRATSSCTATMTRGQYDYWGQGTQVTVSSVPRDCGCKPCICTVPEVSSVFIFPPKPKDVLTITLTPKVTCVVVDISKDDPEVQFSWFVDDVEVHTAQTQPREEQFNSTFRSVSELPIMHQDWLNGKEFKCRVNSAAFPAPIEKTISKTKGRPKAPQVYTIPPPKEQMAKDKVSLTCMITDFFPEDITVEWQWNGQPAENYKNTQPIMDTDGSYFVYSKLNVQKSNWEAGNTFTCSVLHEGLHNHHTEKSLSHSPGK
For B14, the EC50 in experiment [1] was 0.0217 µg/mL.

B15: AR8820 sdAb fusion protein with mIgG1 Fc (Fc fusion)
chain: QVKLEESGGGLVQAGGSLRLSCAASGSSISRYAMAWYRQGPGKERELVAVVRITGSPIYADFVGGRFTISRDNAKSTVLLQMNSLKPEDTAIYYCNTGNFNTYTRRYSPSETWGQGTQVTVSSVPRDCGCKPCICTVPEVSSVFIFPPKPKDVLTITLTPKVTCVVVDISKDDPEVQFSWFVDDVEVHTAQTQPREEQFNSTFRSVSELPIMHQDWLNGKEFKCRVNSAAFPAPIEKTISKTKGRPKAPQVYTIPPPKEQMAKDKVSLTCMITDFFPEDITVEWQWNGQPAENYKNTQPIMDTDGSYFVYSKLNVQKSNWEAGNTFTCSVLHEGLHNHHTEKSLSHSPGK
As to B15, the EC50 in experiment [1] was found to be 0.0151 µg/mL.

B16: AR8804 sdAb fusion protein with mIgG1 Fc (Fc fusion)
chain: B15 chain with Q1A, K3Q, E5V, E6D, I29V, G40A, S56I, G64K, S76N, K86E
Consider B16, for which the EC50 in experiment [1] turned out to be 0.0158 µg/mL.
